No end group written: not given here.
How the values were obtained:
[1] = biological target: EINosite peptide (HPr-contacting region of EIN^sc) (UniProt Q9KZP1); assay: ITC (Auto-ITC200) in two buffers of different ionisation enthalpy; details: pH 7.0; 25 C; no added salt stated; 10 mM Mes (pH 7.0) and 10 mM Mops (pH 7.0); delta H ion 3.55 and 5.05 kcal/mol
[2] = biological target: EINbsite peptide (active-site region of EIN^sc) (UniProt Q9KZP1); assay: as above; details: pH 7.0; 25 C; no added salt stated; 10 mM Mes (pH 7.0) and 10 mM Mops (pH 7.0); delta H ion 3.55 and 5.05 kcal/mol
[3] = biological target: N-terminal domain of enzyme I, wild type (EIN^sc) (UniProt Q9KZP1); assay: as above; details: pH 7.0; 25 C; no added salt stated; 10 mM Mes (pH 7.0) and 10 mM Mops (pH 7.0); delta H ion 3.55 and 5.05 kcal/mol
[4] = biological target: N-terminal domain of enzyme I, phosphomimetic mutant EINH186D H186D (UniProt Q9KZP1); assay: as above; details: pH 7.0; 25 C; no added salt stated; 10 mM Mes (pH 7.0) and 10 mM Mops (pH 7.0); delta H ion 3.55 and 5.05 kcal/mol
[5] = biological target: EINsc H186D EIN (Streptomyces coelicolor) (UniProt Q9KZP1); details: cited from earlier work
[6] = biological target: EINsite peptides (Streptomyces coelicolor) (UniProt Q9KZP1); details: cited from earlier work
[7] = biological target: Histidine phosphocarrier protein HPr (HPr^sc); assay: not stated here (value quoted from ref. [19]; presumably ITC in several buffers); details: pH not stated; cited from earlier work
[8] = biological target: the molecule itself; assay: ITC dilution
[9] = biological target: T1, EINosite peptide (Streptomyces coelicolor, C-terminal amidation); assay: ITC
T1 chain: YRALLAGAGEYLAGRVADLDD

[10] = biological target: T2, EINsc (enzyme I N-terminal domain) N-terminal domain (Streptomyces coelicolor, UniProt Q9KZP1); assay: ITC
T2 chain: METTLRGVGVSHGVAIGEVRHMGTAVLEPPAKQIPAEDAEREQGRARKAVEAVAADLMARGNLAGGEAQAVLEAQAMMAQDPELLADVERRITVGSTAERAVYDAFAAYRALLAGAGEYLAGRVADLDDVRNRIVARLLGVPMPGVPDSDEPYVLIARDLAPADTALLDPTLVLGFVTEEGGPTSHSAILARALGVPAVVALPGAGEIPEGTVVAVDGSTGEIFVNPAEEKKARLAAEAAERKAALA

[11] = biological target: T3, EINH186D (enzyme I N-terminal domain) N-terminal domain (Streptomyces coelicolor, UniProt Q9KZP1); assay: ITC
T3 chain: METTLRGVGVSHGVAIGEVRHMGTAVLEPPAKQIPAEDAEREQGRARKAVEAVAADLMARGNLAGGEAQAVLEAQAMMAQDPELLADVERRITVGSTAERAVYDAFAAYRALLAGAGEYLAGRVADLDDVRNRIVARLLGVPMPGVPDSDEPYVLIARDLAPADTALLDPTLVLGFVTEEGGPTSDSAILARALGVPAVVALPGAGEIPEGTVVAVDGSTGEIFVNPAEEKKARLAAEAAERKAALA

[12] = biological target: T4, EINbsite + EINosite equimolar peptide mixture (Streptomyces coelicolor, UniProt Q9KZP1, C-terminal amidation, equimolar mixture of both peptides); assay: ITC
T4 chain 1: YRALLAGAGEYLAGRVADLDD
T4 chain 2: FVTEEGGPTSHSAILARA

[13] = biological target: T5, EINbsite peptide (Streptomyces coelicolor); assay: ITC
T5 chain: FVTEEGGPTSHSAILARA-NH2

## Histidine phosphocarrier protein HPr (HPr^bs)
[1]
  n H: 0.28 protons
[2]
  n H: -0.31 protons
[3]
  n H: 0.17 protons
[4]
  n H: -0.31 protons

## HPrsc (from UniProt O50515)
[5]
  Kd: 10 µM
[6]
  Kd: 16 µM

## N-terminal domain of enzyme I, wild type (EIN^sc)
[7]
  n H: 0.52 protons

B1: HPrbs (histidine phosphocarrier protein) (protein)
chain: MKTQQFTVIDPLGIHARPASQLVAKATPFASAIEVRTEEKAANLKSILGVMGLALKQGSQFTLYVEGEDEDQAFEALATLLTEMGLAQ
[8]
  Kd: 6.5 µM
[9]
  Kd: 3 µM
[10]
  Kd: 1.9 µM
[11]
  Kd: 2.9 µM
[12]
  Kd: 4.8 µM
[13]
  Kd: 3.9 µM
